From PMC10320249 (eBioMedicine, 2023)
Each block holds one binder with its values, some of them ahead of it.

Columns and labels:
[1] = target: recombinant human CD38 (soluble CD38) (Homo sapiens, UniProt P28907); assay: BLI
[2] = target: CD38 expressed on the plasma membrane of tumour cell lines (Homo sapiens, UniProt P28907); assay: cell-based or functional assay

Kd [1]: 3.9 nM
CD38 cyclase activity on Daudi cells, EC50 [2]: 0.179 µg/mL
CD38 hydrolase activity on Daudi cells, EC50 [2]: 0.028 µg/mL
B1: daratumumab (antibody, V domains shown)
VH: EVQLLESGGGLVQPGGSLRLSCAVSGFTFNSFAMSWVRQAPGKGLEWVSAISGSGGGTYYADSVKGRFTISRDNSKNTLYLQMNSLRAEDTAVYFCAKDKILWFGEPVFDYWGQGTLVTVSS
VL: not shown

Kd [1]: 1.1 nM
CD38 cyclase activity on Daudi cells (NGD+ to cGDPR), EC50 [2]: 0.419 µg/mL
CD38 hydrolase activity on Daudi cells (ε-NAD+ to ε-ADPR), EC50 [2]: 0.335 µg/mL
B2: HexaBody-CD38 (GEN3014), hexamerization-enhanced human IgG1 with the E430G Fc mutation (antibody, V domains shown)
VH: QVQLVQSGAEVKKPGSSVKVSCKAFGGTFSSYAISWVRQAPGQGLEWMGRIIRFLGIANYAQKFQGRVTLIADKSTNTAYMELSSLRSEDTAVYYCAGEPGERDPDAVDIWGQGTMVTVSS
VL: DIQMTQSPSSLSASVGDRVTITCRASQGIRSWLAWYQQKPEKAPKSLIYAASSLQSGVPSRFSGSGSGTDFTLTISSLQPEDFATYYCQQYNSYPLTFGGGTKVEIK
